Measurements: paper PMC8445900

What was measured:
Test in all cases: ITC
[1] = biological target: SARS-CoV-2 spike protein receptor-binding domain K417N (SARS-CoV-2) (UniProt P0DTC2)
[2] = biological target: SARS-CoV-2 spike protein receptor-binding domain S494P (SARS-CoV-2) (UniProt P0DTC2)
[3] = biological target: SARS-CoV-2 spike protein receptor-binding domain Y453F (SARS-CoV-2) (UniProt P0DTC2)
[4] = biological target: SARS-CoV-2 spike protein receptor-binding domain T478I (SARS-CoV-2) (UniProt P0DTC2)
[5] = biological target: SARS-CoV-2 spike protein receptor-binding domain S477N (SARS-CoV-2) (UniProt P0DTC2)

**Q.** For “CC12.1 single-chain fragment variable (scFv)”, which Kd [1] is on record?
**A.** 119 nM

**Q.** And the dH [1]?
**A.** -1.8 kcal/mol

**Q.** And the Kd [2]?
**A.** 23 nM

**Q.** What about the dH [2] of the same substance?
**A.** -6.4 kcal/mol

**Q.** And the Kd [3]?
**A.** 827 nM

**Q.** And the dH [3]?
**A.** -2.2 kcal/mol

**Q.** What about the Kd [4] of the same substance?
**A.** 5.8 nM

**Q.** And the dH [4]?
**A.** -5.6 kcal/mol

**Q.** And the Kd [5]?
**A.** 25.6 nM

**Q.** What about the dH [5] of the same substance?
**A.** -5.7 kcal/mol
